Experimental data taken from PMC5606850, “Acidic C-terminal domains autoregulate the RNA chaperone Hfq” (eLife, 2017).

Key:
[1] = system: RNA molecular beacon and Target RNA; assay: RNA annealing kinetics (molecular beacon and Target RNAs), stopped-flow fluorescence; assay type: biochemical; conditions: 30 °C
Procedure: (§1) Figure 2. CTD and RNA occupy the same rim binding site. […] The CTD linker is shown in purple, the acidic tip in red and the N-terminal FITC as a yellow star. Hfq core is shown in cyan, with basic rim patches in dark blue. […] (C) Reaction scheme for annealing an RNA molecular beacon to a target RNA (open bar) ([Hopkins et al., 2011]; [Panja et al., 2015]). (D) Progress curves for annealing 50 nM molecular beacon and 100 nM Target by 50 nM Hfq65 hexamer at 30°C, measured by stopped-flow fluorescence. See Figure 2—figure supplement 3 for further data. (E) Contribution of core residues to CTD binding. Interaction energy (Expected Energetic Contribution; EEC) in silico for a core residue in the Rosetta models (solid symbols and solid line; adjusted R^2 = 0.77) or the average annealing rates for Target and Target-A18 relative to Hfq65 (open symbols and dashed line; adjusted R^2 = 0.94) versus experimental CTD binding energy (∆∆G°) for each Hfq65 variant. The binding energy, ∆∆G° = –RTln(Kd^MUT/Kd), reflects the perturbation to CTD binding by a mutation in Hfq65. The interaction energy in silico or EEC is defined as the average energy of a tail–core interaction multiplied by the average number of tail–core interactions per model (Figure 1B, top and Equation 3). The relative annealing rate for Hfq65 variants, krel = kobs^MUT/kobs^WT, is <1 if the mutated residue is important for RNA annealing. Figure 2—figure supplement 1. SDS-PAGE of purified Hfq variants. […] Annealing of 100 nM Target RNA to 50 nM beacon RNA by Hfq65 and Hfq65 variants was measured by stopped flow fluorescence at 30°C in 1 × TNK buffer. […] The change in fluorescence emission intensity was normalized to the maximum fluorescence within an experiment. […]
To determine how much core residues that bind the CTD contribute to Hfq’s RNA annealing activity, we compared the effect of rim mutations on the rate of base pairing between an RNA molecular beacon and the 16 nt Target RNA by stopped-flow fluorescence spectroscopy (Figure 2C) ([Hopkins et al., 2011]). […]

[2] = SDS-PAGE oligomerization of purified Hfq variants; assay type: physicochemical, E. coli; conditions: 4–20% SDS-PAGE, ~2.8 µg protein, 2% SDS, boiled
Procedure: as §1, with “variants. WT Hfq assembles into hexamers and dodecamers that are stable to SDS-PAGE, which can be used to evaluate the oligomerization of Hfq variants. Purified Hfq protein (~2.8 µg) was separated on a 4–20% SDS-PAGE gel and stained with Coomassie blue (lanes 2–6). Samples were prepared in 2% SDS and boiled before loading. Lane 1, Protein standards (10 µL All Blue Precision Plus, […]).” for “variants.”

Row | Substance | observed annealing rate of Hfq65 rim mutants ([1]; 50 nM molecular beacon, 100 nM Target, Hfq65 variants, TNK buffer) | activity in single-turnover annealing assays ([1]; 50 nM beacon, 100 nM Target RNA, 0–200 nM Hfq hexamer) | oligomeric state on SDS-PAGE [2]
1 | Hfq65-R16A | most diminished |  | 
2 | Hfq65: truncated E. coli Hfq variant lacking the CTD |  | highly active | form hexamers with slightly different stabilities
3 | Hfq102: full-length E. coli Hfq |  |  | migrates as a dodecamer (red dot) and monomer (green dot) with no visible hexamer band
